Assay results from patent publication US20110053841A1.

Target: FGFR3
Assay: cell-based or functional assay

concentration at which FDCP-FGFR3 cells proliferate (XTT) [ng/mL]	concentration inducing a growth response of FDCP-FGFR3 cells (XTT) [ng/mL]	Substance
> 0.1	–	FGF4^Δ54N165R (from UniProt P08620 55-206) (ligand)
–	> 25	FGF4^Δ78 (from UniProt P08620 79-206) (ligand)
